Results reported in US20260250737A1, “Engineered Luciferases and Luciferin Substrates” (Monod Bio, Inc., priority 2023, published 2026).
Residue numbers refer to the chain shown, from its start. Names may count otherwise.

B1: 5124 (protein)
chain: MTPEEIIANVRAFYAALASGDLEAAKALFDPGTTITLWDGTTFTSLEEFLAWFEKQFDASKDAKREIVSIEVEGDTVRVLVRLTYTKDGKEQVVDLLQLLKFV
B2: MBIO-5381: computationally generated LgLux, SEQ ID NO 2796 (protein)
chain: MTPEERIANVLAFYAALASGDLEAAKALFNPGVTITLWDGTTFTSVEEFRAWFEEQFKTSKDALREIESIEVDGDTVRVLVRLTFVRDGEEKVVDLLQLFKFV
B3: MBIO-5373: computationally generated LgLux, SEQ ID NO 2788 (protein)
chain: B2 chain with K26A
B4: MBIO-5360: computationally generated LgLux, SEQ ID NO 2775 (protein)
chain: B2 chain with R6L, E23V, E55T, K92Q
B5: MBIO-5361: computationally generated LgLux, SEQ ID NO 2776 (protein)
chain: B2 chain with R6L, E23V, P31S, T41A, V46I, E48K, E54D, E55T, R87S, K92Q
B6: MBIO-5374: computationally generated LgLux, SEQ ID NO 2789 (protein)
chain: B2 chain with L11R, K26A, N30D
B7: MBIO-5365: computationally generated LgLux, SEQ ID NO 2780 (protein)
chain: MTPEELRQNLLRFYEALDSGDAVAAASLFNPGVTITLWDGTTFTSVEEFREWFETQFKTSKDALREIESLEVDGDTVRVTVRLTFTRDGEEQVVDLLQLFKFV
B8: MBIO-5370: computationally generated LgLux, SEQ ID NO 2785 (protein)
chain: B7 chain with L6I, L11R, V23E, A26K, N30D, T55E, Q92K
B9: MBIO-5366: computationally generated LgLux, SEQ ID NO 2781 (protein)
chain: B7 chain with A26K
B10: MBIO-5368: computationally generated LgLux, SEQ ID NO 2783 (protein)
chain: B7 chain with A26K, P31S, T41A, V46I, E48K, E54D, R87S
B11: MBIO-5367: computationally generated LgLux, SEQ ID NO 2782 (protein)
chain: B7 chain with P31S, T41A, V46I, E48K, E54D, R87S
B12: MBIO-5369: computationally generated LgLux, SEQ ID NO 2784 (protein)
chain: B7 chain with L6I, V23E, A26K, T55E, Q92K
B13: MBIO-5358: computationally generated LgLux, SEQ ID NO 2774 (protein)
chain: MSEEQIRQDLLRFYEALDSGDAITAASLFNPGVTITLWDGTTFTSVEEFREWFESQFSTSKDALREISSLEVRGDTVEVTVRLSFTRNGQKHTVDLLQQFKFI
B14: MBIO-5377: computationally generated LgLux, SEQ ID NO 2792 (protein)
chain: MTPEERIADVRAFYAALASGDLEAAKALFDPGVTITLWDGTTFTSVEEFRAWFEEQFKTSKDALREIESIEVDGDTVRVLVRLSFTRNGQKHTVDLLQQFKFI
B15: MBIO-5364: computationally generated LgLux, SEQ ID NO 2779 (protein)
chain: B14 chain with D9N, Q99L, I103V
B16: MBIO-5371: computationally generated LgLux, SEQ ID NO 2786 (protein)
chain: B14 chain with R11L, D30N
B17: MBIO-5378: computationally generated LgLux, SEQ ID NO 2793 (protein)
chain: B2 chain with N9D, L11R, N30D, L99Q, V103I
B18: MBIO-5376: computationally generated LgLux, SEQ ID NO 2791 (protein)
chain: B14 chain with Q99L
B19: MBIO-5375: computationally generated LgLux, SEQ ID NO 2790 (protein)
chain: B14 chain with Q99L, I103V
B20: MBIO-5362: computationally generated LgLux, SEQ ID NO 2777 (protein)
chain: B14 chain with D9N, R11L, K26A, D30N, Q99L, I103V
B21: MBIO-5379: computationally generated LgLux, SEQ ID NO 2794 (protein)
chain: B2 chain with N9D, L11R, N30D, V103I
B22: MBIO-5363: computationally generated LgLux, SEQ ID NO 2778 (protein)
chain: B14 chain with D9N, R11L, D30N, Q99L, I103V
B23: MBIO-5380: computationally generated LgLux, SEQ ID NO 2795 (protein)
chain: B2 chain with N9D, L11R, N30D
B24: MBIO-5372: computationally generated LgLux, SEQ ID NO 2787 (protein)
chain: B2 chain with N9D, L99Q, V103I
B25: MBIO-5335: LgLux_4039 variant S2C, R11L, V46I, E54D; SEQ ID NO 2797 (protein)
chain: B13 chain with S2C, D9N, N30D, V46I, E54D, Q99L, I103V
B26: MBIO-5336: LgLux_4039 variant R11L; SEQ ID NO 2798 (protein)
chain: B13 chain with D9N, N30D, Q99L, I103V

Each molecule was assayed on SmLux (assay: Computationally generated LgLux variants expressed in E. coli, tested in lysates with SmLux and substrate 1c). Details: 20 uM SmLux, 50 uM substrate 1c.
Assay type: biochemical
Experimental: LgLux sequences were designed computationally, and their activity measured as depicted schematically in FIG. 45.
A library of the computationally generated LgLux variants were expressed in E. coli and tested in lysates. 20 uM of SmLux and 50 uM of substrate 1c was used for the screening.
LgLux_4039 sequence is as set forth in SEQ ID NO:2773. MBIO-5103 through MBIO-5124, MBIO-5261 through MBIO-5295, MBIO-5101, and MBIO-5102 (SEQ ID NO:2815-SEQ ID NO:2873, respectively) are computationally generated LgLux. The sequences and activity of these LgLux are shown below in Table 21.
MBIO-5358 and MBIO-5360 through MBIO-5381 (SEQ ID NO:2774-SEQ ID NO:2796, respectively) are computationally generated LgLux.

Molecule	Fold change upon SmLux peptide addition
B1	1.07

Same assay, conditions: 50 uM substrate 1c, before SmLux peptide addition

Molecule	Baseline Signal (Normalized by expression)
B1	187.6

Same assay, conditions: Table 22, 20 uM SmLux, 50 uM substrate 1c

Molecule	Fold change upon SmLux peptide addition
B2	22.28
B3	151.01
B4	3.64
B5	5.17
B6	240.47
B7	359.8
B8	390.25
B9	32.61
B10	4.95
B11	6.08
B12	289.49
B13	243.66
B14	205.44
B15	172.59
B16	48.58
B17	85.83
B18	245.29
B19	98.41
B20	27.24
B21	176.25
B22	32.23
B23	157.38
B24	20.86

Same assay, conditions: Table 22, 50 uM substrate 1c

Molecule	Baseline Signal (Normalized by expression)
B2	158.6
B3	388.2
B4	150.2
B5	156.4
B6	796
B7	1452.6
B8	4567
B9	931.2
B10	366.8
B11	231.6
B12	760
B13	440.6
B14	324.4
B15	376.8
B16	234.6
B17	197
B18	409.4
B19	207.6
B20	906.4
B21	338.4
B22	339.2
B23	322.6
B24	210.6

What follows are molecules tested on construct containing Small Lux (SmLux), Large Lux (LgLux), FKBP and FRB (assay: LuxSit split optimization: SmLux-LgLux-FKBP-FRB construct on the surface of yeast, rapamycin-induced signal). Details: Table 19, LgLux variants, 50 uM substrate 1c.
Assay type: biochemical
Experimental: To optimize the function of the LuxSit Splits, a construct containing Small Lux (SmLux), Large Lux (LgLux) and the proteins that bind the molecule Rapamycin (FKBP and FRB), connected by GS linkers, was expressed on the surface of yeast. When 50 uM of substrate 1c is added to yeast expressing this construct, a baseline signal is observed due to SmLux and LgLux reconstitution. When 20 uM of Rapamycin is added, SmLux and LgLux are brought closer to each other by FKBP and FRB, enhancing their reconstitution. As a result, an increase in signal is observed.
Libraries of SmLux and LgLux were assembled and tested independently to identify variants with lower baseline and higher fold change.

Molecule	Baseline Signal (Normalized by expression)
B25	23769.5
B26	16379.8

Same assay, conditions: Table 19, LgLux variants, 50 uM substrate 1c, 20 uM Rapamycin

Molecule	Fold change upon Rap addition
B25	1.9
B26	2.1
